Assay results from PMC8171356 (Nature structural & molecular biology, 2017).
Each block holds one molecule with its values, some of them ahead of it. Ends that are not written are not given here. * marks the point of attachment. βGlcNAc = CC(=O)N[C@@H]1[C@@H](O)[C@H](O)[C@@H](CO)O[C@H]1*

B1: OGA_(cryst) (D175N) (domain or fragment, human)
chain: FLCGVVEGFYGRPWVMEQRKELFRRLQKWELNTYLYAPKDDYKHRMFWREMYSVEEAEQLMTLISAAREYEIEFIYAISPGLDITFSNPKEVSTLKRKLDQVSQFGCRSFALLFDNIDHNMCAADKEVFSSFAHAQVSITNEIYQYLGEPETFLFCPTEYCGTFCYPNVSQSPYLRTVGEKLLPGIEVLWTGPKVVSKEIPVESIEEVSKIIKRAPVIWDNIHANDYDQKRLFLGPYKGRSTELIPRLKGVLTNPNCEFEANYVAIHTLATWYKSNMNGVRKDVVMTDSEDSTVSIQIKLENEGSDEDIETDVLYSPQMALKLALTEWLQEFGVPHQYSSRGGGGSGGGGSGGGGSVTLEDLQLLADLFYLPYEHGPKGAQMLREFQWLRANSSVVSVNCKGKDSEKIEEWRSRAAKFEEMCGLVMGMFTRLSNCANRTILYDMYSYVWDIKSIMSMVKSFVQWLGCRSHSSAQFLIGDQEPWAFRGGLAGEFQRLLPIDGANDLFFQ

What was measured:
[1] = in vivo; cited from earlier work
[2] = molecular target: T1, full-length human O-GlcNAcase (hOGA) (human, UniProt O60502 1-916); assay: glycopeptide competition assay
T1 sequence (looked up): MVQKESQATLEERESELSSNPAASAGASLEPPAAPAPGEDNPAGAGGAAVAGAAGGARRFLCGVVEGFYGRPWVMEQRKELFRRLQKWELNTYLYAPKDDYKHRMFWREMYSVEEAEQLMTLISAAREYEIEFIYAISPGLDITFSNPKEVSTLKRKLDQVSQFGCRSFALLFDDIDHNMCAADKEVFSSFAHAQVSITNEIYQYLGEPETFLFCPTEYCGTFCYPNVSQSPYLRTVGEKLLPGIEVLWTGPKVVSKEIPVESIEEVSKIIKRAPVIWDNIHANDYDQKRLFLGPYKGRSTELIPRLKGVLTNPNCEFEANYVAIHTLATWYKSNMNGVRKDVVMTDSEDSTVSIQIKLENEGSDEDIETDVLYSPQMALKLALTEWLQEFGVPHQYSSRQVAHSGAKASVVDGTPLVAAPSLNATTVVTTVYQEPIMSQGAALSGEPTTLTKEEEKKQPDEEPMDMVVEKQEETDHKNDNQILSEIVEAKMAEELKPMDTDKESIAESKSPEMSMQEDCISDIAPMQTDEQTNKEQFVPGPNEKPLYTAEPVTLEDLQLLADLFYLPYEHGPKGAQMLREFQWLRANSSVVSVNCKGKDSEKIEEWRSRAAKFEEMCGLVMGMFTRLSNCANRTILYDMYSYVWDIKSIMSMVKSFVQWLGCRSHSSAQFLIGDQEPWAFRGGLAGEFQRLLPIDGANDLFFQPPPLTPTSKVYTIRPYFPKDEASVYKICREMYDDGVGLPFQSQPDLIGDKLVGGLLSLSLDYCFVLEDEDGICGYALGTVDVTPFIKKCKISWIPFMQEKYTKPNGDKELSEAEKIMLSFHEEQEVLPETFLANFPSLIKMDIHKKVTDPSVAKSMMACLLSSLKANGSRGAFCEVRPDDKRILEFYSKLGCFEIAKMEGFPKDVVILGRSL

OGA_(cryst) (D175N) = molecular target: B1; assay: crystal structure
crystal structure = molecular target: the molecule itself; assay: crystal structure
AUC = molecular target: the molecule itself; assay: AUC

Molecule: CCN=C1N[C@@H]2[C@@H](O)[C@H](O)[C@@H](CO)O[C@@H]2S1 [thiamet-G]
blood–brain barrier crossing [1]: can cross the blood–brain barrier

binding result [2]: binds
binding result (OGA_(cryst) (D175N)): binds
Molecule: Ac-QLWVDS(βGlcNAc)TPPPG [O-GlcNAcylated p53 peptide Ac-QLWVDS(O-GlcNAc)TPPPG]

Molecule: B1
binding result (crystal structure): binds

B2: OGA_(cryst) (truncated hOGA, residues 60-704 with residues 401-552 replaced by a 15-residue glycine-serine linker) (domain or fragment, human)
chain: FLCGVVEGFYGRPWVMEQRKELFRRLQKWELNTYLYAPKDDYKHRMFWREMYSVEEAEQLMTLISAAREYEIEFIYAISPGLDITFSNPKEVSTLKRKLDQVSQFGCRSFALLFDDIDHNMCAADKEVFSSFAHAQVSITNEIYQYLGEPETFLFCPTEYCGTFCYPNVSQSPYLRTVGEKLLPGIEVLWTGPKVVSKEIPVESIEEVSKIIKRAPVIWDNIHANDYDQKRLFLGPYKGRSTELIPRLKGVLTNPNCEFEANYVAIHTLATWYKSNMNGVRKDVVMTDSEDSTVSIQIKLENEGSDEDIETDVLYSPQMALKLALTEWLQEFGVPHQYSSRGGGGSGGGGSGGGGSVTLEDLQLLADLFYLPYEHGPKGAQMLREFQWLRANSSVVSVNCKGKDSEKIEEWRSRAAKFEEMCGLVMGMFTRLSNCANRTILYDMYSYVWDIKSIMSMVKSFVQWLGCRSHSSAQFLIGDQEPWAFRGGLAGEFQRLLPIDGANDLFFQ
stoichiometry N (AUC): 2
